From publication PMC8444450 (The Journal of Biological Chemistry, 2021)

Target: SARS-CoV-2 spike receptor-binding domain (amino acids 333–529), bacteria-expressed and refolded (SARS-CoV-2, parental (WT) RBD, UniProt P0DTC2)
Experiment: SPR
Conditions: both partners purified

B1: sybody Sb68 (VHH)
VHH: QVQLVESGGGSVQAGGSLRLSCAASGSISSITYLGWFRQAPGKEREGVAALITVNGHTYYADSVKGRFTVSLDNAKNTVYLQMNSLKPEDTALYYCAAAAWGYAWPLHQDDYWYWGQGTQVTVSA
Q: For B1, which Kd is on record?
A: The Kd was 6.8 to 62.7 nM.
